{"source": "paper PMC10247153", "about": "(2022)", "key": {"[1]": {"target": "T1, unmodified 187 bp mononucleosome (human, UniProt P68431 1-136)", "experiment": "apparent, EMSA"}, "[2]": {"target": "T2, unmodified 147 bp mononucleosome (human, UniProt P68431 1-136)", "experiment": "apparent, EMSA, lower limit"}, "[3]": {"target": "T3, PHD1 (KDM5C residues 318–378) (human, UniProt P41229-1 318-378)", "T3 chain": "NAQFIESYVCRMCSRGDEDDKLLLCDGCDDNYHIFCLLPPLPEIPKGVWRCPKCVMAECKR", "experiment": "NMR; from D343"}, "[4]": {"target": "T4, PHD1 D343A mutant (human, UniProt P41229-1 318-378, D343A)", "T4 sequence": "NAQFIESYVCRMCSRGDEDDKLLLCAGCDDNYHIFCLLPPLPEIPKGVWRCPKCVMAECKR", "experiment": "NMR; lower limit, from I361"}, "[5]": {"target": "T5, Avitag-PHD1 (human, UniProt P41229-1 318-378, not fully specified; biotin on the Avitag (BirA co-expression))", "T5 chain": "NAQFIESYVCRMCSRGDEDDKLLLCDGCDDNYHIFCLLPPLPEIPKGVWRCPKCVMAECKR", "experiment": "BLI; dissociation kobs1 (two phase)"}, "[6]": {"target": "T5, Avitag-PHD1", "experiment": "BLI; dissociation kobs2 (two phase)"}, "[7]": {"target": "T2, unmodified 147 bp mononucleosome", "experiment": "apparent, EMSA"}, "[8]": {"target": "T1, unmodified 187 bp mononucleosome", "experiment": "apparent, EMSA, lower limit"}, "[9]": {"target": "T2, unmodified 147 bp mononucleosome", "experiment": "apparent Kd, EMSA, lower limit"}, "[10]": {"target": "T3, PHD1 (KDM5C residues 318–378)", "experiment": "NMR; lower limit, from I361"}, "[11]": {"target": "T3, PHD1 (KDM5C residues 318–378)", "experiment": "NMR; from I361"}, "[12]": {"target": "T2, unmodified 147 bp mononucleosome", "experiment": "apparent Kd, EMSA, lower limit", "remark": "listed apart in the source"}}, "note": "No end group written: not given here. Me3 = trimethyl; Me2 = dimethyl", "data": [{"binder": "KDM5C^1–839 K101A/R107A (domain or fragment) MEPGSDDFLPPPECPVFEPSWAEFRDPLGYIAKIRPIAEKSGICKIRPPADWQPPFAVEVDNFRFTPRIQRLNELEAQTRVKLNYLDQIAKFWEIQGSSLAIPNVEARILDLYSLSKIVVEEGGYEAICKDRRWARVAQRLNYPPGKNIGSLLRSHYERIVYPYEMYQSGANLVQCNTRPFDNEEKDKEYKPHSIPLRQSVQPSKFNSYGRRAKRLQPDPEPTEEDIEKNPELKKLQIYGAGPKMMGLGLMAKDKTLRKKDKEGPECPPTVVVKEELGGDVKVESTSPKTFLESKEELSHSPEPCTKMTMRLRRNHSNAQFIESYVCRMCSRGDEDDKLLLCDGCDDNYHIFCLLPPLPEIPKGVWRCPKCVMAECKRPPEAFGFEQATREYTLQSFGEMADSFKADYFNMPVHMVPTELVEKEFWRLVNSIEEDVTVEYGADIHSKEFGSGFPVSDSKRHLTPEEEEYATSGWNLNVMPVLEQSVLCHINADISGMKVPWLYVGMVFSAFCWHIEDHWSYSINYLHWGEPKTWYGVPSLAAEHLEEVMKKLTPELFDSQPDLLHQLVTLMNPNTLMSHGVPVVRTNQCAGEFVITFPRAYHSGFNQGYNFAEAVNFCTADWLPAGRQCIEHYRRLRRYCVFSHEELICKMAACPEKLDLNLAAAVHKEMFIMVQEERRLRKALLEKGITEAEREAFELLPDDERQCIKCKTTCFLSALACYDCPDGLVCLSHINDLCKCSSSRQYLRYRYTLDELPAMLHKLKVRAESFDTWANKVRVALEVEDGRKRSLEELRALESEARERRFPNSELLQQLKNCLSEAEACVSRALGLVSGQEAG", "values": [{"measurement": "Kd", "setting": "[1]", "result": 6.3, "unit": "µM"}, {"measurement": "Kd", "setting": "[2]", "result": "> 15.1", "unit": "µM"}]}, {"binder": "ARTKQTARKSTGGKAPRK", "note": "[H3 (1–18) tail peptide]", "values": [{"measurement": "Kd", "setting": "[3]", "result": 140, "unit": "µM"}, {"measurement": "Kd", "setting": "[4]", "result": "> 1450", "unit": "µM"}]}, {"binder": "Ac-QSVQPSKFNSYGRRAKRLQP-NH2", "note": "[KDM5C (199–218) peptide]", "values": [{"measurement": "Kd", "setting": "[3]", "result": 440, "unit": "µM"}, {"measurement": "koff", "setting": "[5]", "result": 1.45, "unit": "s⁻¹"}, {"measurement": "koff", "setting": "[6]", "result": 0.02, "unit": "s⁻¹"}]}, {"binder": "ARID (KDM5C residues 73–188) (domain or fragment) NELEAQTRVKLNYLDQIAKFWEIQGSSLKIPNVERRILDLYSLSKIVVEEGGYEAICKDRRWARVAQRLNYPPGKNIGSLLRSHYERIVYPYEMYQSGANLVQCNTRPFDNEEKDK", "values": [{"measurement": "Kd", "setting": "[7]", "result": 31, "unit": "µM"}, {"measurement": "Kd", "setting": "[1]", "result": 22, "unit": "µM"}]}, {"binder": "KDM5C^(1–839 ΔAP) (domain or fragment) MEPGSDDFLPPPECPVFEPSWAEFRDPLGYIAKIRPIAEKSGICKIRPPADWQPPFAVEVDNFRFTPRIQRLNELEAQTRVKGGGGPPEAFGFEQATREYTLQSFGEMADSFKADYFNMPVHMVPTELVEKEFWRLVNSIEEDVTVEYGADIHSKEFGSGFPVSDSKRHLTPEEEEYATSGWNLNVMPVLEQSVLCHINADISGMKVPWLYVGMVFSAFCWHIEDHWSYSINYLHWGEPKTWYGVPSLAAEHLEEVMKKLTPELFDSQPDLLHQLVTLMNPNTLMSHGVPVVRTNQCAGEFVITFPRAYHSGFNQGYNFAEAVNFCTADWLPAGRQCIEHYRRLRRYCVFSHEELICKMAACPEKLDLNLAAAVHKEMFIMVQEERRLRKALLEKGITEAEREAFELLPDDERQCIKCKTTCFLSALACYDCPDGLVCLSHINDLCKCSSSRQYLRYRYTLDELPAMLHKLKVRAESFDTWANKVRVALEVEDGRKRSLEELRALESEARERRFPNSELLQQLKNCLSEAEACVSRALGLVSGQEAG", "values": [{"measurement": "Kd", "setting": "[2]", "result": "> 35", "unit": "µM"}, {"measurement": "Kd", "setting": "[8]", "result": "> 42", "unit": "µM"}, {"measurement": "Kd", "setting": "[9]", "result": "> 35", "unit": "µM"}]}, {"binder": "Ac-KEELSHSPEPCTKMTMRLRR-NH2", "note": "[KDM5C (295–314) peptide]", "values": [{"measurement": "koff", "setting": "[5]", "result": 2.2, "unit": "s⁻¹"}, {"measurement": "koff", "setting": "[6]", "result": 0.04, "unit": "s⁻¹"}]}, {"binder": "ARTK(Me2)QTARKSTGGKAPRK", "note": "[H3K4me2 (1–18) peptide]", "values": [{"measurement": "Kd", "setting": "[10]", "result": "> 900", "unit": "µM"}]}, {"binder": "ARTK(Me3)QTARKSTGGKAPRK", "note": "[H3K4me3 (1–18) peptide]", "values": [{"measurement": "Kd", "setting": "[10]", "result": "> 1500", "unit": "µM"}]}, {"binder": "ARTK(Me)QTARKSTGGKAPRK", "note": "[H3K4me1 (1–18) peptide]", "values": [{"measurement": "Kd", "setting": "[11]", "result": 313, "unit": "µM"}]}, {"binder": "KDM5C1-839 ΔAP A388P (protein) MEPGSDDFLPPPECPVFEPSWAEFRDPLGYIAKIRPIAEKSGICKIRPPADWQPPFAVEVDNFRFTPRIQRLNELEAQTRVKGGGGPPEAFGFEQPTREYTLQSFGEMADSFKADYFNMPVHMVPTELVEKEFWRLVNSIEEDVTVEYGADIHSKEFGSGFPVSDSKRHLTPEEEEYATSGWNLNVMPVLEQSVLCHINADISGMKVPWLYVGMVFSAFCWHIEDHWSYSINYLHWGEPKTWYGVPSLAAEHLEEVMKKLTPELFDSQPDLLHQLVTLMNPNTLMSHGVPVVRTNQCAGEFVITFPRAYHSGFNQGYNFAEAVNFCTADWLPAGRQCIEHYRRLRRYCVFSHEELICKMAACPEKLDLNLAAAVHKEMFIMVQEERRLRKALLEKGITEAEREAFELLPDDERQCIKCKTTCFLSALACYDCPDGLVCLSHINDLCKCSSSRQYLRYRYTLDELPAMLHKLKVRAESFDTWANKVRVALEVEDGRKRSLEELRALESEARERRFPNSELLQQLKNCLSEAEACVSRALGLVSGQEAG", "values": [{"measurement": "Kd", "setting": "[12]", "result": "> 45", "unit": "µM"}]}, {"binder": "KDM5C^1–839 (domain or fragment) MEPGSDDFLPPPECPVFEPSWAEFRDPLGYIAKIRPIAEKSGICKIRPPADWQPPFAVEVDNFRFTPRIQRLNELEAQTRVKLNYLDQIAKFWEIQGSSLKIPNVERRILDLYSLSKIVVEEGGYEAICKDRRWARVAQRLNYPPGKNIGSLLRSHYERIVYPYEMYQSGANLVQCNTRPFDNEEKDKEYKPHSIPLRQSVQPSKFNSYGRRAKRLQPDPEPTEEDIEKNPELKKLQIYGAGPKMMGLGLMAKDKTLRKKDKEGPECPPTVVVKEELGGDVKVESTSPKTFLESKEELSHSPEPCTKMTMRLRRNHSNAQFIESYVCRMCSRGDEDDKLLLCDGCDDNYHIFCLLPPLPEIPKGVWRCPKCVMAECKRPPEAFGFEQATREYTLQSFGEMADSFKADYFNMPVHMVPTELVEKEFWRLVNSIEEDVTVEYGADIHSKEFGSGFPVSDSKRHLTPEEEEYATSGWNLNVMPVLEQSVLCHINADISGMKVPWLYVGMVFSAFCWHIEDHWSYSINYLHWGEPKTWYGVPSLAAEHLEEVMKKLTPELFDSQPDLLHQLVTLMNPNTLMSHGVPVVRTNQCAGEFVITFPRAYHSGFNQGYNFAEAVNFCTADWLPAGRQCIEHYRRLRRYCVFSHEELICKMAACPEKLDLNLAAAVHKEMFIMVQEERRLRKALLEKGITEAEREAFELLPDDERQCIKCKTTCFLSALACYDCPDGLVCLSHINDLCKCSSSRQYLRYRYTLDELPAMLHKLKVRAESFDTWANKVRVALEVEDGRKRSLEELRALESEARERRFPNSELLQQLKNCLSEAEACVSRALGLVSGQEAG", "values": [{"measurement": "Kd", "setting": "[1]", "result": 4.3, "unit": "µM"}]}]}
